We go through 167 variants from the RNAGym collection of RNA variant scans (doi:10.7554/elife.80360).

Sequences and labels used below:
B1: CPEB3 Ribozyme (parent)
chain: GGGGGCCACAGCAGAAGCGUUCACGUCGCGGCCCCUGUCAGAUUCUGGUGAAUCUGCGAAUUCUGCUGU

In this series the parent is B1. In words: self-cleavage, relative activity (ratio to wild type); higher = more cleavage; co-transcriptional.
As to C24U G65U, the self-cleavage was found to be 0.352.
Take C24U G65A: the self-cleavage was 0.39.
For C24U C66G, the self-cleavage was 0.346.
For C24U C66U the value was 0.734.
Take C24U C66A: the self-cleavage was 0.331.
Turning to G25A A51U, the self-cleavage stood at 0.166.
For G25A A51G, the self-cleavage came out at 0.22.
For C24U G25A the value was 0.212; for C24U G25C, 0.105.
For the variant G25A G68U, the self-cleavage turned out to be 0.224.
Take G25A G68A: the self-cleavage is 0.222.
For G25A G68C the value was 0.195; for C24U U64A, 0.42.
For the variant C24U U64C, the self-cleavage came to 0.531.
Take G25A C66A: the self-cleavage came to 0.196.
In the case of G25A C66U, the self-cleavage was 0.244.
Regarding G25A G28C, the self-cleavage is 0.131.
As for G25C A59U, the self-cleavage was 0.176.
Take G25C A59G: the self-cleavage is 0.169.
To G25C A59C belongs 0.193; to G25A G31U, 0.197; to G25A G31C, 0.147.
Take G25A G31A: the self-cleavage worked out at 0.219.
G25A C32U: the self-cleavage is 0.255.
As for G25A C32G, the self-cleavage stood at 0.131.
With G25A G58C, the self-cleavage was found to be 0.159.
On to G25A G58A, for which the self-cleavage came out at 0.22.
For G25A G58U the value was 0.218; for G25A G65A, 0.189; for C24U C63G, 0.328.
Turning to G25A U62A, the self-cleavage was 0.187.
Regarding G25A U62C, the self-cleavage was 0.19.
For C24U U69A, the self-cleavage came out at 0.895.
For the variant C24U U69G, the self-cleavage was found to be 0.909.
In the case of G25A C45A, the self-cleavage was 0.208.
Consider G25A G41C, for which the self-cleavage was found to be 0.172.
Regarding G25A G41U, the self-cleavage amounted to 0.197.
Take G25A U43C: the self-cleavage turned out to be 0.288.
To G25A U43G belongs 0.119; to G25A U43A, 0.154; to G25C A51C, 0.227.
Consider G25C A51G, for which the self-cleavage was found to be 0.203.
C24U U62A: the self-cleavage was determined as 0.441.
As to C24U U62C, the self-cleavage was determined as 0.505.
In the case of G25A G56U, the self-cleavage stood at 0.2.
In the case of G25A U69A, the self-cleavage is 0.295.
To G25A U69C belongs 0.36; to C24U G68C, 0.928; to C24U G68U, 0.96.
Take C24U U46A: the self-cleavage stood at 0.852.
For C24U U46C the value was 0.714; for C24U G37U, 0.251; for G25A A59C, 0.157.
In the case of G25A A59U, the self-cleavage amounted to 0.17.
Regarding G25A A59G, the self-cleavage turned out to be 0.208.
For G25A U44A the value was 0.138; for G25A U44G, 0.11.
As to G25A G47A, the self-cleavage came out at 0.175.
C24U G48U: the self-cleavage was determined as 0.889.
In the case of C24U G48A, the self-cleavage amounted to 0.815.
To C24U G48C belongs 0.86.
To G25A C29A belongs 0.181; to G25A C29G, 0.216.
Turning to G25A C29U, the self-cleavage was 0.163.
For C24U U53C, the self-cleavage turned out to be 0.53.
To G25A U38C belongs 0.123; to G25A U38A, 0.149; to G25A U38G, 0.153.
As for G25C A42C, the self-cleavage turned out to be 0.187.
As for G25C A42U, the self-cleavage turned out to be 0.203.
On to G25C A42G, for which the self-cleavage worked out at 0.194.
Take C24U U67C: the self-cleavage was 0.833.
For C24U U67G, the self-cleavage is 0.761.
Regarding C24U G50A, the self-cleavage turned out to be 0.838.
To C24U G50C belongs 0.795; to G25A U53G, 0.169; to G25A U53C, 0.206.
As for G25A U53A, the self-cleavage amounted to 0.171.
As to G25A A40C, the self-cleavage stood at 0.178.
Turning to G25A A40U, the self-cleavage stood at 0.153.
For C24U G58U the value was 0.879; for C24U G58C, 0.742; for G25A C34A, 0.196.
Take G25A C34U: the self-cleavage was 0.185.
As to C24U U44G, the self-cleavage worked out at 0.703.
For C24U U44C, the self-cleavage stood at 0.633.
On to C24U U44A, for which the self-cleavage worked out at 0.687.
To G25A A60U belongs 0.188; to G25A A60G, 0.171.
For the variant G25A U55C, the self-cleavage was found to be 0.152.
For the variant G25A U55G, the self-cleavage was found to be 0.235.
As for C24U G56U, the self-cleavage was determined as 0.528.
For C24U G56C the value was 0.307; for C24U G56A, 0.61; for G25A A52C, 0.253.
As for G25A A52G, the self-cleavage came out at 0.193.
To G25A A52U belongs 0.213; to G25A G30A, 0.155.
Consider G25A G30C, for which the self-cleavage was 0.219.
As to G25A U46C, the self-cleavage was 0.216.
To G25A U46A belongs 0.267.
To G25A C63U belongs 0.166.
In the case of C24U C57G, the self-cleavage was found to be 0.24.
For C24U C57U, the self-cleavage turned out to be 0.244.
For C24U G31A the value was 0.316; for C24U G31U, 0.271.
With G25C A52C, the self-cleavage worked out at 0.182.
For G25C A52G, the self-cleavage was determined as 0.174.
Turning to G25C A52U, the self-cleavage came to 0.158.
C24U G41A: the self-cleavage worked out at 0.394.
In the case of C24U G41U, the self-cleavage is 0.461.
To C24U U43C belongs 0.691; to C24U U43A, 0.679.
In the case of C24U U43G, the self-cleavage was found to be 0.418.
To G25C belongs 0.17.
For G25A the value was 0.202.
As to G25A G48A, the self-cleavage is 0.208.
For G25A G48U the value was 0.236; for C24U U36G, 0.182.
For C24U U49G the value was 0.762; for G25A U61C, 0.247; for G25A U61G, 0.219.
C24U G30A: the self-cleavage was found to be 0.389.
C24U G30U: the self-cleavage was determined as 0.199.
As to G25A U67G, the self-cleavage was found to be 0.266.
Take G25A U67C: the self-cleavage was 0.133.
For the variant G25A C57A, the self-cleavage turned out to be 0.223.
Consider G25A C57U, for which the self-cleavage stood at 0.205.
Turning to G25A C33U, the self-cleavage was determined as 0.276.
For the variant G25A C33A, the self-cleavage worked out at 0.206.
For G25A C33G the value was 0.206.
Regarding G25A C27G, the self-cleavage was determined as 0.208.
Regarding G25A C27A, the self-cleavage is 0.162.
Take G25A C27U: the self-cleavage was found to be 0.169.
To G25A U64G belongs 0.185.
G25A U64C: the self-cleavage stood at 0.14.
To G25A U64A belongs 0.19; to C24U U38A, 0.418.
As for C24U U38C, the self-cleavage is 0.582.
For G25A U26C, the self-cleavage was determined as 0.297.
G25A U26G: the self-cleavage came out at 0.148.
For G25A C35G, the self-cleavage turned out to be 0.18.
For G25A C35U the value was 0.152; for G25A A42C, 0.161; for G25A A42G, 0.203.
To G25A A42U belongs 0.178.
Turning to G25C A40G, the self-cleavage was found to be 0.158.
As for G25C A40C, the self-cleavage came to 0.173.
Regarding G25C A40U, the self-cleavage came to 0.176.
For G25A C39U the value was 0.229; for G25A C39G, 0.16.
G25A C39A: the self-cleavage came out at 0.237.
Regarding G25A U49C, the self-cleavage came out at 0.219.
G25A U49G: the self-cleavage came to 0.207.
For G25A U36C, the self-cleavage stood at 0.292.
G25A U36G: the self-cleavage is 0.176.
Turning to G25A U36A, the self-cleavage is 0.184.
For C24U G47U the value was 0.909.
For C24U G47A the value was 0.869; for G25A G37A, 0.187.
For G25A G37C, the self-cleavage was 0.119.
To G25A G37U belongs 0.199; to G25A C54A, 0.203.
Take G25A C54G: the self-cleavage stood at 0.208.
For C24U U61C the value was 0.353; for C24U U61G, 0.397.
For C24U U61A the value was 0.431.
